± gives the uncertainty stated by the source.
Test: self-splicing fitness, log relative to wild type (ln ratio); higher = more splicing; Tetrahymena group I intron in knt gene, E. coli kanamycin selection, DiMSum; sequences stand for … in CUCUCU…GGAGGGAAAAGUUAUCAGGCAUGCACCUGGUAGCUAGUCUUUAAACCAAUAGAUUGCAUCGGUUUAAAAGGCAAGACCGUCAAAUUGCGGGAAAGGGGUCAACAGCCGUUCAGUACCAAGUCUCAGGGGAAACUUUGAGAUGGCCUUGCAAAGGGUAUGGUAAUAAGCUGACGGACAUGGUCCUAACCACGCAGCCAAGUCCUAAGUCAACAGAUCUUCUGUUGAUAUGGAUGCAGUUCACAGACUAAAUGUCGGUCGGGGAAGAUGUAUUCUUCUCAUAAGAUAUAGUCGGACCUCUCCUUAAUGGGAGCUAGCGGAUGAAGUGAUGCAACACUGGAGCCGCUGGGAACUAAUUUGUAUGCGAAAGUAUAUUGAUUAGUUUUGGAGUACUCGUGGUCG
Summary of the method: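 The eight P1ex-region nucleotides of an intron in the knt kanamycin-resistance gene on pET-22b(+) were all randomised and the library put into E. coli BL21(DE3). Six replicate transformations were grown overnight at 37°C or 30°C on LB agar with or without 25 μg/mL kanamycin, together with 100 μg/mL carbenicillin, 50 μM IPTG and 0.2% rhamnose. Colonies were pooled and amplicon-sequenced on an Illumina HiSeq 2500. Fitness from DiMSum is the error-weighted combination of wild-type-normalised replicate fold changes, kanamycin over none.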

| Sequence | self-splicing fitness (ln) (30 °C) | self-splicing fitness (ln) (37 °C) |
| --- | --- | --- |
| CUAAAGCAAUAUUACGGGCC | -2.8 ± 0.23 | -1.28 ± 0.2 |
| CUAAAGCAAUAUUACGGGUG | 0.107 ± 0.039 | 0.493 ± 0.064 |
| CUAAAGCAAUAUUACGGUGC | -3.22 ± 0.16 | -3.15 ± 0.25 |
| CUAAAGCAAUAUUACGGUUA | -3.78 ± 0.33 | -2.72 ± 0.25 |
| CUAAAGCAAUAUUACGUAAA | -2.81 ± 0.14 | -3.36 ± 0.26 |
| CUAAAGCAAUAUUACGUAUC | -3.77 ± 0.18 | -2.22 ± 0.22 |
| CUAAAGCAAUAUUACGUCUG | 0.155 ± 0.049 | 0.458 ± 0.071 |
| CUAAAGCAAUAUUACGUGAC | -1.12 ± 0.051 | -0.411 ± 0.078 |
| CUAAAGCAAUAUUACGUUAA | -3.6 ± 0.11 | -2.53 ± 0.15 |
| CUACAGCAAUAUUACGAAAG | -1.42 ± 0.078 | -0.755 ± 0.094 |
| CUACAGCAAUAUUACGAAUA | -3.07 ± 0.41 | -2.21 ± 0.27 |
| CUACAGCAAUAUUACGAGCA | -2.77 ± 0.16 | -2.56 ± 0.23 |
| CUACAGCAAUAUUACGAGGU | -2.63 ± 0.13 | -3.03 ± 0.27 |
| CUACAGCAAUAUUACGAUAU | -3.89 ± 0.22 | -1.4 ± 0.22 |
| CUACAGCAAUAUUACGAUUG | -0.678 ± 0.055 | -0.0365 ± 0.078 |
| CUACAGCAAUAUUACGCCAU | -3.16 ± 0.12 | -2.45 ± 0.14 |
| CUACAGCAAUAUUACGCGAA | -2.83 ± 0.18 | -3.89 ± 0.31 |
| CUACAGCAAUAUUACGGAAU | -4.13 ± 0.32 | -3.3 ± 0.26 |
| CUACAGCAAUAUUACGGCGU | -3.49 ± 0.13 | -2.94 ± 0.19 |
| CUACAGCAAUAUUACGGCUA | -3.25 ± 0.25 | -3.02 ± 0.22 |
| CUACAGCAAUAUUACGGGCU | -4.53 ± 0.29 | -2.97 ± 0.29 |
| CUACAGCAAUAUUACGGGUA | -3.25 ± 0.19 | -2.05 ± 0.12 |
| CUACAGCAAUAUUACGGGUG | -0.249 ± 0.037 | -0.538 ± 0.053 |
| CUACAGCAAUAUUACGUAUA | -2.73 ± 0.2 | -1.13 ± 0.18 |
| CUACAGCAAUAUUACGUCAA | -3.91 ± 0.19 | -1.82 ± 0.14 |

| Sequence | self-splicing fitness (ln) (30 °C) | self-splicing fitness (ln) (37 °C) |
| --- | --- | --- |
| CUACAGCAAUAUUACGUCUU | -4.14 ± 0.24 | -3.48 ± 0.25 |
| CUACAGCAAUAUUACGUGAG | -0.958 ± 0.058 | -0.926 ± 0.086 |
| CUACAGCAAUAUUACGUGGG | -4.01 ± 0.2 | -2.61 ± 0.15 |
| CUACAGCAAUAUUACGUUCC | -2.48 ± 0.22 |  |
| CUAGAGCAAUAUUACGAAUU | -3.78 ± 0.28 | -1.95 ± 0.29 |
| CUAGAGCAAUAUUACGAGAC | -2.63 ± 0.29 | -0.86 ± 0.3 |
| CUAGAGCAAUAUUACGAGUG | -0.496 ± 0.067 | -0.868 ± 0.085 |
| CUAGAGCAAUAUUACGAUUU | -3.17 ± 0.2 | -1.48 ± 0.25 |
| CUAGAGCAAUAUUACGCAAU | -3.77 ± 0.22 | -3.08 ± 0.34 |
| CUAGAGCAAUAUUACGCAGC | -3.55 ± 0.38 | -3.32 ± 0.46 |
| CUAGAGCAAUAUUACGCAUG | -0.244 ± 0.092 | 0.532 ± 0.1 |
| CUAGAGCAAUAUUACGCGGA |  | -1.33 ± 0.36 |
| CUAGAGCAAUAUUACGCGUU | -4.14 ± 0.24 | -2.46 ± 0.27 |
| CUAGAGCAAUAUUACGGAGC |  | -3.62 ± 0.34 |
| CUAGAGCAAUAUUACGGGAA | -4.25 ± 0.35 | -2.45 ± 0.45 |
| CUAGAGCAAUAUUACGGGAC | -2.5 ± 0.16 | -1.05 ± 0.18 |
| CUAGAGCAAUAUUACGGUUG | -0.207 ± 0.056 | -0.329 ± 0.074 |
| CUAGAGCAAUAUUACGGUUU | -4.03 ± 0.31 |  |
| CUAGAGCAAUAUUACGUACU | -3.83 ± 0.3 | -3.27 ± 0.43 |
| CUAGAGCAAUAUUACGUCGA | -3.94 ± 0.28 | -2.34 ± 0.28 |
| CUAGAGCAAUAUUACGUGGG | -0.857 ± 0.13 | -0.906 ± 0.16 |
| CUAGAGCAAUAUUACGUUAC | -2.88 ± 0.27 |  |
| CUAGAGCAAUAUUACGUUCG | -1.1 ± 0.047 | -0.578 ± 0.076 |
| CUAUAGCAAUAUUACGACUA | -1.87 ± 0.47 |  |
